Laboratory results taken from patent US20230279123A1.

Tests used:
IL-4Rα (on TF-1 cells) = IL-4Rα (on TF-1 cells) (UniProt P24394); test: cell-based or functional assay
[1] = biological target: IL-4Rα (receptor protein / antigen) (UniProt P24394); test: competition ELISA: IL-4Rα coated, biotin-IL-4 at EC80 mixed with antibody dilutions, OD450; hIgG is the control, the fitted value may be meaningless

Row | EC50 of neutralizing IL-4-induced TF-1 cell proliferation (IL-4Rα (on TF-1 cells)) [nM] | EC50 of neutralizing IL-13-induced TF-1 cell proliferation (IL-4Rα (on TF-1 cells)) [nM] | EC50 [1] [nM] | Substance
1 | 0.13 | 0.178 | – | dupilumab (antibody)
2 | – | – | 2.04 | hIgG (antibody)
